Assay results from paper PMC4787773.

Target: hnRNPK (human, UniProt P61978 1-463)
Assay: EMSA

Binder | binding result
GGGGCCGGGGCCGGGGCCGGGGCCGGGGCCGGGGCCGGGGCCGGGGCC (structured_DNA, 5-methylcytosine at each CpG) [d(GGGGCC)8 5mCpG] | no binding
GGGGCCGGGGCCGGGGCCGGGGCCGGGGCCGGGGCCGGGGCCGGGGCC (structured_DNA, 5-hydroxymethylcytosine at each CpG) [d(GGGGCC)8 5hmCpG] | no binding
